Test results reported in publication PMC13544220, “Glycemic and bodyweight effects of GIPR coding variation reflect differences in surface expression and intrinsic functional impairment” (Science Advances, 2026).

What was measured:
Format in all cases: cell-based, human
[1] = test system: wild-type and variant SNAP-GIPR; assay: cADDis cAMP imaging in AD293 cells, ensemble, expression-matched and per decile; conditions: Fig S3F, cADDis, mean;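 note: Ensemble cells as % of IBMX/FSK response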
Method in brief: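 Surface GIPR and cAMP are measured in individual AD293 cells coexpressing SNAP-tagged receptor and the green cADDis biosensor, imaged live at 37°C. Responses are reported ensemble, expression-matched against wild-type deciles with extremes trimmed, or within each variant's own surface deciles.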

[2] = test system: wild-type and variant SNAP-GIPR; assay: Surface SNAP-GIPR expression (SNAP-tag labelling) in AD293 cells; conditions: for AD293 Surface: Fig S3E, mean; for Surface SNAP-GIPR expression: sheet Fig 1C;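 for all read-outs here: scaled to the experimental average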
Method in brief: (§1)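 Read-out: whole-cell fluorescence of surface-only SNAP label (Alexa Fluor 647, 500 nM, 10 min, RT), wide-field 20X, several FOVs per well. Flat-field corrected, phase-contrast masked, nontransfected-well signal subtracted; normalized to experiment mean or wild-type.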

[3] = test system: wild-type and variant SNAP-GIPR; assay: Single-concentration GIP cAMP response by HTRF in AD293 cells; conditions: Fig S3F, HTRF, mean;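 note: ratio to experiment-wide average response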
Procedure: (§2) All variants were tested in parallel on each occasion to control for transfection efficiency differences between experiments.

[4] = test system: wild-type and variant SNAP-GIPR; assay: Single-concentration GIP cAMP response by HTRF in INS-1 cells; conditions: Fig S3E, mean
Procedure: as §2

[5] = test system: wild-type and variant SNAP-GIPR; assay: Surface SNAP-GIPR expression (SNAP-tag labelling) in INS-1 cells; conditions: Fig 4G; Mean
Method in brief: as §1

[6] = test system: wild-type and variant SNAP-GIPR; assay: Constitutive and agonist-mediated internalization, reversible SNAP-tag labelling, INS-1 cells; parameters: key to Internalisation, GIP-only / Internalisation, Vehicle / Internalisation, +GIP: % internalization: residual fluorescence after Mesna vs pre-Mesna; conditions: Mean
Method in brief: (§3)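 Percentage internalization is read as the fraction of specific SNAP fluorescence that survives Mesna stripping, compared with the image taken before Mesna. Wells are imaged in TNE buffer at pH 8.6 and again after 10 min.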

[7] = test system: wild-type and variant SNAP-GIPR; assay: Constitutive and agonist-mediated internalization, reversible SNAP-tag labelling, AD293 cells; parameters: key to Internalisation, Vehicle / Internalisation, +GIP / Internalisation, GIP-only: % internalization: residual fluorescence after Mesna vs pre-Mesna; Surface expression: unit not given here; conditions: Mean
Method in brief: as §3

B1: R217L (protein, UniProt P48546 22-466, looked up, variant R217L)
Gastric inhibitory …: RAETGSKGQTAGELYQRWERYRRECQETLAAAEPPSGLACNGSFDMYVCWDYAAPNATARASCPWYLPWHHHVAAGFVLRQCGSDGQWGLWRDHTQCENPEKNEAFLDQRLILERLQVMYTVGYSLSLATLLLALLILSLFRRLHCTRNYIHINLFTSFMLRAAAILSRDRLLPRPGPYLGDQALALWNQALAACLTAQIVTQYCVGANYTWLLVEGVYLHSLLVLVGGSEEGHFRYYLLLGWGAPALFVIPWVIVRYLYENTQCWERNEVKAIWWIIRTPILMTILINFLIFIRILGILLSKLRTRQMRCRDYRLRLARSTLTLVPLLGVHEVVFAPVTEEQARGALRFAKLGFEIFLSSFQGFLVSVLYCFINKEVQSEIRRGWHHCRLRRSLGEEQRQLPERAFRALPSGSGPGEVPTSRGLSSGTLPGPGNEASRELESYC
**Q.** Which results are given for B1?
**A.** AD293 100 pM cADDis ([1]; AD293, 100 pM): 17.6282; AD293 100 nM cADDis ([1]; AD293, 100 nM): 34.7; AD293 Surface ([2]; column repeated, paired with cAMP 100 nM): 0.4259; AD293 Surface ([2]; paired with cAMP 100 pM): 0.4259; Surface SNAP-GIPR expression ([2]; replicate 1): 0.4201; Surface SNAP-GIPR expression ([2]; replicate 2): 0.7236; Surface SNAP-GIPR expression ([2]; replicate 3): 0.824; Surface SNAP-GIPR expression ([2]; replicate 4): 0.3234; Surface SNAP-GIPR expression ([2]; replicate 5): 0.3781; Surface SNAP-GIPR expression ([2]; replicate 6): 0.5304; Surface SNAP-GIPR expression ([2]; replicate 7): 0.6162; Surface SNAP-GIPR expression ([2]; replicate 8): 0.6634; Surface SNAP-GIPR expression ([2]; replicate 9): 0.3807; Surface SNAP-GIPR expression ([2]; replicate 10): 0.4129; Surface SNAP-GIPR expression ([2]; replicate 11): 0.358; Surface SNAP-GIPR expression ([2]; replicate 12): 0.3678; Surface SNAP-GIPR expression ([2]; replicate 13): 0.04028; Surface SNAP-GIPR expression ([2]; replicate 14): 0.3517; Surface SNAP-GIPR expression ([2]; replicate 15): 0.3652; Surface SNAP-GIPR expression ([2]; replicate 16): 0.3999; Surface SNAP-GIPR expression ([2]; replicate 17): 0.3288; Surface SNAP-GIPR expression ([2]; replicate 18): 0.3912; Surface SNAP-GIPR expression ([2]; replicate 19): 0.3034; Surface SNAP-GIPR expression ([2]; replicate 20): 0.3764; Surface SNAP-GIPR expression ([2]; replicate 21): 0.4615; Surface SNAP-GIPR expression ([2]; replicate 22): 0.364; Surface SNAP-GIPR expression ([2]; replicate 23): 0.3963; Surface SNAP-GIPR expression ([2]; replicate 24): 0.3543; Surface SNAP-GIPR expression ([2]; replicate 25): 0.4738; Surface SNAP-GIPR expression ([2]; replicate 26): 0.4835; Surface SNAP-GIPR expression ([2]; replicate 27): 0.4338; Surface SNAP-GIPR expression ([2]; replicate 28): 0.5117; Surface SNAP-GIPR expression ([2]; replicate 29): 0.4222; Surface SNAP-GIPR expression ([2]; replicate 30): 0.4733; Surface SNAP-GIPR expression ([2]; replicate 31): 0.4841; Surface SNAP-GIPR expression ([2]; replicate 32): 0.4011; Surface SNAP-GIPR expression ([2]; replicate 33): 0.4465; Surface SNAP-GIPR expression ([2]; replicate 34): 0.4033; Surface SNAP-GIPR expression ([2]; replicate 35): 0.2194; Surface SNAP-GIPR expression ([2]; replicate 36): 0.2502; Surface SNAP-GIPR expression ([2]; replicate 37): 0.3794; Surface SNAP-GIPR expression ([2]; replicate 38): 0.4678; Surface SNAP-GIPR expression ([2]; replicate 39): 0.4904; Surface SNAP-GIPR expression ([2]; replicate 40): 0.4789; Surface SNAP-GIPR expression ([2]; replicate 41): 0.5101; AD293 100 pM HTRF ([3]; AD293, 100 pM): 0.09215; AD293 100 nM HTRF ([3]; AD293, 100 nM): 1.142; INS-1 cAMP (100 nM) [4]: 1.196; Surface expression [5]: 0.4654; +GIP internalisation (100 nM) ([6]; Fig 4G, GIP 100 nM): 0.2239; GIP-specific internalisation (100 nM) ([6]; Fig 4G, GIP 100 nM): 0.03772; Constitutive internalisation (100 nM) ([6]; Fig 4G): 0.1862; Internalisation, +GIP ([6]; Fig S4C, INS-1): 51.715; Internalisation, GIP-only ([6]; Fig S4C, INS-1): 8.862; Internalisation, Vehicle ([6]; Fig S4C, INS-1): 42.8533; +GIP internalisation (100 nM) ([7]; Fig 4E, GIP 100 nM): 0.224; GIP-specific internalisation (100 nM) ([7]; Fig 4E, GIP 100 nM): 0.04046; Constitutive internalisation (100 nM) ([7]; Fig 4E): 0.1836; Surface expression ([7]; Fig 4E): 0.4265; Internalisation, +GIP ([7]; Fig S4C, AD293): 55.082; Internalisation, GIP-only ([7]; Fig S4C, AD293): 10.4684; Internalisation, Vehicle ([7]; Fig S4C, AD293): 44.6136
